Columns and labels:
[1] = biological target: GST:Anillin (608–940) (human) (UniProt Q9NQW6); experiment: pull-down; purified MBP- or GST-tagged anillin fragments (200 nM) as bait; lysates of transfected HEK-293 cells; 50 mM Tris pH7.6, 150 mM NaCl, 5 mM MgCl2, 0.5% Triton X-100, 1 mM DTT, 4°C; western blot for Myc
[2] = biological target: GST:Anillin (608–940) (human) (UniProt Q9NQW6); experiment: pull-down; lysates of transfected HEK-293 cells diluted by 0.5-fold, 0.25-fold or 0.05-fold, pulled down with 200 nM GST-tagged AHD; western blot for Myc, % bound protein

UniProt Q9NQW6, sequence (Q9NQW6 645-977): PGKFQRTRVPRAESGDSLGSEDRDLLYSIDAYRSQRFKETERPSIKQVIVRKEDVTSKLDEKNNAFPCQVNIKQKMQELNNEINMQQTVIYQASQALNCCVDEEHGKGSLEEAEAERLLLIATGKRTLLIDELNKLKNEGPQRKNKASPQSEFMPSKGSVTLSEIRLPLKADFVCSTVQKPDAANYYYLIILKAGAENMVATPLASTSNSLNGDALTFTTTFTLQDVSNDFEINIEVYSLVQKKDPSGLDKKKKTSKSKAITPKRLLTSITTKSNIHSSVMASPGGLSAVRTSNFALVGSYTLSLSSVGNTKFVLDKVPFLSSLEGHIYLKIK

Substance | fold change of the amount pulled down against wild-type Ect2 (C-term) [1] [fold lower] | percent of protein bound at the lowest dilution [2] [%]
Myc:Ect2 (421–883; D668G) (domain or fragment) | 0.5 | 
Myc:Ect2 (421–883) (domain or fragment) |  | 38

From article PMC3325936
